Results reported in patent US20130102644, “Prophylactic or Ameliorating Agent for Genetic Diseases” (published 2013).

Target: hnRNP A1 (Homo sapiens, UniProt P09651 P09651:1-372)
Assay: EMSA; 100-400 ng protein; same as mutant at low protein, less efficient at 400 ng; 80 mM KCl, pH 7.9, E. coli tRNA, 20 C
Details: tags: N-terminal GST (GST-pcDNA3), expressed in HEK293T; label: 32P
Description: Human hnRNP A1 cDNA was amplified by PCR. The obtained amplified fragment was inserted to between the BamHI and NotI sites of GST-pcDNA3 to prepare a GST-hnRNP A1 plasmid. The whole sequence of this plasmid was determined to confirm the plasmid to comprise the fragment of interest. HEK293T cells were transfected with this GST-hnRNP A1 plasmid, and the obtained transformed cells were cultured. A whole cell lysate was prepared from the collected transformed cells according to the method described in the document (Methods Mol Biol (2008) 488, 357-365). The GST-hnRNP A1 protein was purified from the whole cell lysate using an anti-GST affinity resin (manufactured by Sigma-Aldrich Corp.), basically as described in the document (The Journal of Biological Chemistry (2002) 277, 7540-7545) except that the resin was washed twice with buffer solution E (20 mM Hepes-KOH (pH 7.9), 1000 mM KCl, 0.2 mM EDTA, 10% glycerol, and 1 mM DTT) before elution from the column. Subsequently, mutant exon 31 RNA or wild-type exon 31 RNA labeled with ³²P was mixed with the GST-hnRNP A1 protein and incubated at 20° C. for 30 minutes. The obtained complex was subjected to gel mobility shift assay. […]
The gel mobility shift assay was basically conducted according to the method described in the document (Nucleic Acids Research (1995) 23, 3638-3641). […] Bands were analyzed by autoradiography. […]

Chain of hnRNP A1 (P09651 whole entry, one chain of several): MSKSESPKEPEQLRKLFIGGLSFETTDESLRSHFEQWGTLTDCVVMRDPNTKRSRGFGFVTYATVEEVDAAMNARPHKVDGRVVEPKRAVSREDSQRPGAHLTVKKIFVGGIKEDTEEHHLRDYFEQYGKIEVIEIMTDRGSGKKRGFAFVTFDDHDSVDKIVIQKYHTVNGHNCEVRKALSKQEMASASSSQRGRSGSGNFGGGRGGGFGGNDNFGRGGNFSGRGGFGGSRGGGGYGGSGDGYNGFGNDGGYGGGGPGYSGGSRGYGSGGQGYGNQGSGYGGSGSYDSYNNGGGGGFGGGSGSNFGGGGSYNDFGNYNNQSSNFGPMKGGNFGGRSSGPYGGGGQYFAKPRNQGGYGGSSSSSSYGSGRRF

B1: dystrophin exon 31 RNA wild-type (ssRNA)
RNA: AAAAUCCAAUCUGAUUUGACAAGUCAUGAGAUCAGUUUAGAAGAAAUGAAGAAACAUAAUCAGGGGAAGGAGGCUGCCCAAAGAGUCCUGUCUCAGAUUGAUGUUGCACAG
**Q.** Does B1 bind?
**A.** Result: binds
